For this assay, the target named is T1, vascular endothelial growth factor (VEGF) (Homo sapiens, UniProt P15692-4).
T1 construct: vascular endothelial growth factor (VEGF-A); The SPR paragraph says only 'immobilized VEGF'; also called recombinant human VEGF
Briefly: SPR; Biacore T200; VEGF immobilised, Fabs as analyte. To be noted: both partners purified. On the technique in general: Surface plasmon resonance follows binding to a sensor surface in real time, without labels.

T1 sequence (P15692 whole entry): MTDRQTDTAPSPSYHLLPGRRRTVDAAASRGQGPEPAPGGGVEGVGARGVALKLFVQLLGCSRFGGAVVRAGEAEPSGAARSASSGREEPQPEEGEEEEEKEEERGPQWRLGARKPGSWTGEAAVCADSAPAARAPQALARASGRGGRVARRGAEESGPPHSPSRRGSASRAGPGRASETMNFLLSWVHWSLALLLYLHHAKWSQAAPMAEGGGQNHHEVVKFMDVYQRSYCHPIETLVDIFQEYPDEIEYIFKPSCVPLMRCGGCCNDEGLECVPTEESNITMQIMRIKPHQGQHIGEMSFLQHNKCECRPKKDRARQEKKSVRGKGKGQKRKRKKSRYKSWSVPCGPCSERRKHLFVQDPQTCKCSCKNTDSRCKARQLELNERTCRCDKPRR

B1: RBZ–3 (Fab, V domains shown)
VH: EVQLVESGGGLVQPGGSLRLSCAASGYDFTHYGMNWVRQAPGKGLEWVGWINTYTGEPTYAADFKRRFTFSLDTSKSTAYLQMNSLRAEDTAVYYCAKYPYYYGTSHWYFDVWGQGTLVTVSS
VL: DIQLTQSPSSLSASVGDRVTITCSASQDISNYLNWYQQKPGKAPKVLIYDTSDLESGVPSRFSGSGSGTDFTLTISSLQPEDFATYYCQQYSTVPWTFGQGTKVEIK
notes: as the light chain of m1 (ranibizumab) before CDR-L1; CDR-L1, same as ranibizumab; as the light chain of m1 (ranibizumab) between CDR-L1 and CDR-L2; CDR-L2, changed from FTSSLHS of ranibizumab; as the light chain of m1 (ranibizumab) after CDR-L2; as the heavy chain of m1 (ranibizumab Fab), unchanged; Charge variant, relative charge -3 against ranibizumab; changes only in CDR-L2; also called TA_2; …
By Kd is commonly meant the equilibrium constant for the complex coming apart. In turn, B1 showed a Kd of less than 5 nM.

B2: RBZ+7 (Fab, V domains shown)
VH: EVQLVESGGGLVQPGGSLRLSCAASGYDFTHYGMNWVRQAPGKGLEWVGWINTYTGEPTYAADFKRRFTFSLDTSKSTAYLQMNSLRAEDTAVYYCAKYPYYYGTSHWYFDVWGQGTLVTVSS
VL: DIQLTQSPSSLSASVGDRVTITCRARQGIRNYLNWYQQKPGKAPKVLIYKTSRRHSGVPSRFSGSGSGTDFTLTISSLQPEDFATYYCQQYSTVPWTFGQGTKVEIK
notes: as the light chain of m1 (ranibizumab) before CDR-L1; as the light chain of m1 (ranibizumab) between CDR-L1 and CDR-L2; CDR-L2, changed from FTSSLHS of ranibizumab; as the light chain of m1 (ranibizumab) after CDR-L2; as the heavy chain of m1 (ranibizumab Fab), unchanged; Charge variant, relative charge +7 against ranibizumab; also called TA_3; source: E. coli, 10 L fermentation, purified …
The molecule B2 had a Kd of less than 5 nM.

B3: RBZ-HI low (Fab, V domains shown)
VH: EVQLVESGGGLVQPGGSLRLSCAASGYDFTHYGMNWVRQAPGKGLEWVGWINTYTGEPTYAADFKRRFTFSLDTSKSTAYLQMNSLRAEDTAVYYCAKYPYYYGTSHWYFDVWGQGTLVTVSS
VL: DIQLTQSPSSLSASVGDRVTITCQASQDISNSLNWYQQKPGKAPKVLIYSTSNLHSGVPSRFSGSGSGTDFTLTISSLQPEDFATYYCQQYSTVPWTFGQGTKVEIK
notes: as the light chain of m1 (ranibizumab) before CDR-L1; as the light chain of m1 (ranibizumab) between CDR-L1 and CDR-L2; CDR-L2, changed from FTSSLHS of ranibizumab; as the light chain of m1 (ranibizumab) after CDR-L2; as the heavy chain of m1 (ranibizumab Fab), unchanged; Hydrophobicity variant; source: E. coli, 10 L fermentation, purified (Protein G-Sepharose, cation exchange Hitrap SP HP)
Turning to B3, the Kd is less than 5 nM.

B4: RBZ-HI high (Fab, V domains shown)
VH: EVQLVESGGGLVQPGGSLRLSCAASGYDFTHYGMNWVRQAPGKGLEWVGWINTYTGEPTYAADFKRRFTFSLDTSKSTAYLQMNSLRAEDTAVYYCAKYPYYYGTSHWYFDVWGQGTLVTVSS
VL: DIQLTQSPSSLSASVGDRVTITCSVSQVISSWLAWYQQKPGKAPKVLIYFASSLQTGVPSRFSGSGSGTDFTLTISSLQPEDFATYYCQQYSTVPWTFGQGTKVEIK
notes: as for B3
The molecule B4 came in with a Kd of less than 5 nM.
